Article PMC7311918

What was measured:
Experiment in all cases: SEC-MALS
[1] = target: HCoV-229E S 2P trimer (S ectodomain, residues 17-1113) (HCoV-229E) (UniProt P15423)
[2] = target: HCoV-NL63 S 2P trimer (S ectodomain, residues 16-1291) (HCoV-NL63) (UniProt Q6Q1S2)
[3] = target: HCoV-OC43 S 2P trimer (S ectodomain, residues 15-1263) (HCoV-OC43)

Substance: HCoV-229E S 2P trimer (S ectodomain, residues 17-1113) (from UniProt P15423 17-1113) (natural protein)
- stoichiometry N [1]: 3

Substance: HCoV-NL63 S 2P trimer (S ectodomain, residues 16-1291) (from UniProt Q6Q1S2 16-1291) (natural protein)
- stoichiometry N [2]: 3

Substance: HCoV-OC43 S 2P trimer (S ectodomain, residues 15-1263) (natural protein)
- stoichiometry N [3]: 3
